Results: patent US7410801 (UNIVERSITY OF DELHI DEPARTMENT OF BIOCHEMISTRY, dated 2008)

Target: mesothelin (UniProt Q13421 296-598)
Assay: ELISA, purified phages added to mesothelin coated wells

mesothelin, sequence (Q13421 other isoform, or with tags, fused parts or gaps limits assumed): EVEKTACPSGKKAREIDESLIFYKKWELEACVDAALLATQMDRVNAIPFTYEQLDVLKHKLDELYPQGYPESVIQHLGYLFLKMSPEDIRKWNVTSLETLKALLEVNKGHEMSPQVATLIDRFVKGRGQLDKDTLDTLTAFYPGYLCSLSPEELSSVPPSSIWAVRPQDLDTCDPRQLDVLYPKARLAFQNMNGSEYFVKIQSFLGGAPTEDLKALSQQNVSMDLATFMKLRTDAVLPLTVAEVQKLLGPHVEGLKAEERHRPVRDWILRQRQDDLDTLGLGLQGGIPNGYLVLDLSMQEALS

B1: D-cmyc fusion protein displayed on lambda phage λDcDL1 (other)
chain (part 1 of 2): MTSKETFTHYQPQGNSDPAHTATAPGGLSAKAPAMTPLMLDTSSRKLVAWDGTTDGAAVGILAVAADQTSTTLTFYKSGTFRYEDVLWPEAASDETKKRTAFAGTAISIV
chain (part 2 of 2): EQKLISEEDL
notes: also called DcDL1 phages
binding result: no binding
